From patent publication US20010006793A1, “MODULATORS OF EUKARYOTIC CASPASES” (priority 1998, published 2001) come the findings set out here.

The assay addresses T1, human caspase-8β (Homo sapiens, UniProt Q14790).
T1 construct: expressed in transfected cells; host or cells: Saccharomyces cerevisiae FY250, single-copy ARS/CEN vector YCpGAL1-caspase-8β-L, GAL1 promoter
The experiment in a line: Yeast screening method: suppression of caspase-8β-induced lethality in S. cerevisiae FY250 double transformants on galactose medium. It counts as cell-based. The note with it: for identified as a caspase inhibitor (product of human brain cDNA suppressing caspase-8β-induced cell death): FY250 double transformants, GAL1-driven expression, galactose-containing medium; for Caspase Inhibitor: Table 1 Caspase Modulators, identified using the screening method of the invention. From the text:
The invention includes a screening method of determining whether a compound is a caspase modulator. […] A difference between the viability indicator of the first cell and the viability indicator of the second cell is an indication that the compound is a caspase modulator.
As described herein, the transformant expresses the caspase when an inducer of the inducible promoter of the caspase vector is provided to the caspase transformant. When the caspase transformant expresses the caspase, cytotoxicity ensues in the caspase transformant. If an inhibitor of the caspase is provided to the caspase transformant prior to the onset of cytotoxicity, the caspase transformant may be enabled to survive expression of the caspase or the onset of cytotoxicity may be delayed.
The gene encoding p35 was cloned into a yeast-based expression vector designated YCpGAL1-U (wherein U designates a URA3 selectable marker) to yield a YCpGAL1-p35-U inhibitor vector. Yeast cells were co-transformed with the inhibitor vector, YCpGAL1-p35-U, and with the caspase vector, YCpGAL1-caspase-8β-L, to yield a double transformant. Double transformants were plated on SC-leucine-uracil medium supplemented with dextrose to repress GAL1 promoter function. Serial ten-fold dilutions of individual double transformants grown in SC-leucine-uracil medium containing dextrose were prepared and spotted onto SC-leucine-uracil medium comprising dextrose or galactose.
Individual viable colonies of double transformant are isolated, and the test vector comprising the unknown cDNA is isolated.
The screening method used in this Example was performed as follows. A yeast double transformant was prepared by transforming S. cerevisiae strain FY250 with two yeast expression vectors. The first yeast expression vector comprised cDNA encoding a self-activating form of human caspase-8β operably linked to a GAL1 promoter and a LEU2 selectable marker. This first vector was a single copy vector and was designated YCpGAL1-caspase-8β-L. A plurality of second yeast expression vectors was used, each comprising a single random human cDNA sequence operably linked to a GAL1 promoter and a URA3 selectable marker. The cDNA sequences used to generate the plurality of second yeast expression vectors were obtained from a library of cDNAs prepared from human brain cells. The second vectors were multicopy vectors.
Double transformants were propagated on plates containing SC-leucine-uracil agar comprising dextrose. Colonies of double transformants were replica plated on plates containing medium comprising galactose, whereby expression of caspase-8β and of any product encoded by the cDNA of the second vector was induced. […] The second vector was recovered from individual colonies of double transformants which were able to survive on the galactose-containing medium and used, along with the first vector, to transform fresh FY250 cells. […] The identity of individual products encoded by the cDNA of individual second vectors was established by determining the nucleotide sequence of the cDNA and comparing the sequence with databases of known human gene sequences, including Genbank, the EST Database, and the Human Genome Database.

T1 sequence (Q14790 1-464 isoform Q14790-2): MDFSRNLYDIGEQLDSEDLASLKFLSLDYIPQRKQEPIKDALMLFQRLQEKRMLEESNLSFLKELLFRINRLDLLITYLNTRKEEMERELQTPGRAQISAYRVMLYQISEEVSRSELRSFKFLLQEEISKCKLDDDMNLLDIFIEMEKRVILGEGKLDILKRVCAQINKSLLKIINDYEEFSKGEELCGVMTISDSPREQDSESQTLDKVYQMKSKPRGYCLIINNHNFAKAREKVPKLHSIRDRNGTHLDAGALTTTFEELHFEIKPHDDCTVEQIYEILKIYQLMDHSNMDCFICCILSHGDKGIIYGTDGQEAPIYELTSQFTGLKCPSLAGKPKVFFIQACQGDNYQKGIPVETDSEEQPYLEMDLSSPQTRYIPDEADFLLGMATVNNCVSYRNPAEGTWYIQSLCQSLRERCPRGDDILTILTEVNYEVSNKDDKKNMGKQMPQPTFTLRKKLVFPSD

B1: Human Tissue Inhibitor of Metalloprotease-3: product encoded by human brain cDNA, identified as caspase inhibitor (protein)
chain: CTCSPSHPQDAFCNSDIVIRAKVVGKKLVKEGPFGTLVYTIKQMKMYRGFTKMPHVQYIHTEASESLCGLKLEVNKYQYLLTGRVYDGKMYTGLCNFVERWDQLTLSQRKGLNYRYHLGCNCKIKSCYYLPCFVTSKNECLWTDMLSNFGYPGYQSKHYACIRQKGGYCSWYRGWAPPDKSIINATDP
As to B1, the “identified as a caspase inhibitor (product of human brain cDNA suppressing caspase-8β-induced cell death)” value (from here on “identified as a caspase inhibitor”) was “caspase inhibitor” and the “Caspase Inhibitor” value was “✓”.

B2: Glutamate-Binding Subunit of a Human NMDA Receptor Complex: product encoded by human brain cDNA, identified as caspase inhibitor (protein)
chain: MSHEKSFLVSGDNYPPPNPGYPGGPQPPMPPYAQPPYPGAPYPQPPFQPSPYGQPGYPHGPSPYPQGGYPQGPYPQGGYPQGPYPQEGYPQGPYPQGGYPQGPYPQSPFPPNPYGQPQVFPGQDPDSPQHGNYQEEGPPSYYDNQDFPATNWDDKSIRQAFIRKVFLVLTLQLSVTLSTVSVFTFVAEVKGFVRENVWTYYVSYAVFFISLIVLSCCGDFRRKHPWNLVALSVLTASLSYMVGMIASFYNTEAVIMAVGITTAVCFTVVIFSMQTRYDFTSCMGVLLVSMVVLFIFAILCIFIRNRILEIVYASLGALLFTCFLAVDTQLLLGNKQLSLSPEEYVFAALNLYTDIINIFLYILTIIGRAKE
On to B2, for which the “Caspase Inhibitor” value is “✓”.

B3: Human hnRNP D: product encoded by human brain cDNA, identified as caspase inhibitor (protein, UniProt Q14103 2-355, looked up)
Heterogeneous nuclear …: SEEQFGGDGAAAAATAAVGGSAGEQEGAMVAATQGAAAAAGSGAGTGGGTASGGTEGGSAESEGAKIDASKNEEDEGHSNSSPRHSEAATAQREEWKMFIGGLSWDTTKKDLKDYFSKFGEVVDCTLKLDPITGRSRGFGFVLFKESESVDKVMDQKEHKLNGKVIDPKRAKAMKTKEPVKKIFVGGLSPDTPEEKIREYFGGFGEVESIELPMDNKTNKRRGFCFITFKEEEPVKKIMEKKYHNVGLSKCEIKVAMSKEQYQQQQQWGSRGGFAGRARGRGGGPSQNWNQGYSNYWNQGYGNYGYNSQGYGGYGGYDYTGYNNYYGYGDYSNQQSGYGKVSRRGGHQNSYKPY
As for B3, the “identified as a caspase inhibitor” value was “caspase inhibitor” and the “Caspase Inhibitor” value is reported as “✓”.

B4: Human Myelin Basic Protein: product encoded by human brain cDNA, identified as caspase inhibitor (protein)
chain: MASQKRPSQRHGSKYLATASTMDHARHGFLPRHRDTGILDSIGRFFGGDRGAPKRGSGKDSHHPARTAHYGSLPQKSHGRTQDENPVVHFFKNIVTPRTPPPSQGKGRGLSLSRFSWGAEGQRPGFGYGGRASDYKSAHKGFKGVDAQGTLSKIFKLGGRDSRSGSPMARR
For B4, the “identified as a caspase inhibitor” value is recorded as “caspase inhibitor” and the “Caspase Inhibitor” value is “✓”.

B5: Viral protein p35: known viral protein caspase inhibitor, expressed from YCpGAL1-p35-U vector (protein)
chain: MCVIFPVEIDVSQTIIRDCQVDKQTRELVYINKIMNTQLTKPVLMMFNISGPIRSVTRKNNNLRDRIKSKVDEQFDQLERDYSDQMDGFHDSIKYFKDEHYSVSCQNGSVLKSKFAKILKSHDYTDKKSIEAYEKYCLPKLVDERNDYYVAVCVLKPGFENGSNQVLSFEYNPIGNKVIVPFAHEINDTGLYEYDVVAYVDSVQFDGEQFEEFVQSLILPSSFKNSEKVLYYNEASKNKSMIYKALEFTTESSWGKSEKYNWKIFCNGFIYDKKSKVLYVKLHNVTSALNKNVILNTIK
For the molecule B5, the “Caspase Inhibitor” value is recorded as “✓”. Further, under “FY250 co-transformed with YCpGAL1-p35-U and YCpGAL1-caspase-8β-L, SC-leucine-uracil medium with galactose”, the “survival of double transformants on galactose-containing test medium” value was “survived on this medium”.

B6: Human Ubiquitin C-terminal Hydrolase: product encoded by human brain cDNA; also known as UHX1 (protein)
chain: MAVAPRLFGGLCFRFRDQNPEVAVEGRLPISHSCVGCRRERTAMATVAANPAAAAAAVAAAAAVTEDREPQHEELPGLDSQWRQIENGESGRERPLRAGESWFLVEKHWYKQWEAYVQGGDQDSSTFPGCINNATLFQDEINWRLKEGLVEGEDYVLLPAAAWHYLVSWYGLEHGQPPIERKVIELPNIQKVEVYPVELLLVRHNDLGKSHTVQFSHTDSIGLVLRTARERFLVEPQEDTRLWAKNSEGSLDRLYDTHITVLDAALETGQLIIMETRKKDGTWPSAQLHVMNNNMSEEDEDFKGQPGICGLTNLGNTCFMNSALQCLSNVPQLTEYFLNNCYLEELNFRNPLGMKGEIAEAYADLVKQAWSGHHRSIVPHVFKNKVGHFASQFLGYQQHDSQELLSFLLDGLHEDLNRVKKKEYVELCDAAGRPDQEVAQEAWQNHKRRNDSVIVDTFHGLFKSTLVCPDCGNVSVTFDPFCYLSVPLPISHKRVLEVFFIPMDPRRKPEQHRLVVPKKGKISDLCVALSKHTGISPERMMVADVFSHRFYKLYQLEEPLSSILDRDDIFVYEVSGRIEAIEGSREDIVVPVYLRERTPARDYNNSYYGLMLFGHPLLVSVPRDRFTWEGLYNVLMYRLSRYVTKPNSDDEDDGDEKEDDEEDKDDVPGPSTGGSLRDPEPEQAGPSSGVTNRCPFLLDNCLGTSQWPPRRRRKQLFTLQTVNSNGTSDRTTSPEEVHAQPYIAIDWEPEMKKRYYDEVEAEGYVKHDCVGYVMKKAPVRLQECIELFTTVETLEKENPWYCPSCKQHQLATKKLDLWMLPEILIIHLKRFSYTKFSREKLDTLVEFPIRDLDFSEFVIQPQNESNPELYKYDLIAVSNHYGGMRDGHYTTFACNKDSGQWHYFDDNSVSPVNENQIESKAAYVLFYQRQDVARRLLSPAGSSGAPASPACSSPPSSEFMDVN
B6: the “identified as a caspase inhibitor” value is recorded as “caspase inhibitor” and the “Caspase Inhibitor” value is “✓”.

B7: Human Death Associated Protein 1: product encoded by human brain cDNA; also known as DAP-1 (protein)
chain: MSSPPEGKLETKAGHPPAVKAGGMRIVQKHPHTGDTKEEKDKDDQEWESPSPPKPTVFISGVIARGDKDFPPAAAQVAHQKPHASMDKHPSPRTQHIQQPRK
With B7, the “identified as a caspase inhibitor” value is reported as “caspase inhibitor” and the “Caspase Inhibitor” value is “✓”.
